25 sequences from the supplement of paper PMC10567573 can be followed below.

± gives the standard deviation.

The nature of this data set: protein stability index of a GFP-peptide fusion (GPS, HEK-293T) (PSI 1-6); higher = more stable. The following applies: c terminus: a fixed tail appended.
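Also: 24-mer peptide tiles fused after GFP, lentivirally expressed, FACS-sorted into six equal bins by GFP/DsRed ratio, decoded by Illumina sequencing, PSI is the read-weighted mean bin number.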

As to IAQDTCTTTDHSSNPGPVPGSSSG [SPAG8], the protein stability index runs as follows: (treatment: DMSO) 5.23 ± 0.44; (treatment: MLN4924 1 uM, 8 h) 5.26 ± 0.23.
The corresponding values for LLTWTEPPVRPAGYLLSFHTPGGQ [TNXB] are 2.42 ± 0.23 and 2.64 ± 0.29.
For NISELKRTFLETSTDTAVTNEWEK [EPB41L3], the protein stability index was 4.82 ± 0.25 (treatment: DMSO) and 4.686 ± 0.034 (treatment: MLN4924 1 uM, 8 h).
The corresponding values for YYHRRNEMTTTDDLDFKHHNYKEM [CPXM2] are 3.22 ± 0.33 and 3.35 ± 0.25.
The corresponding values for EVVPALEPTETLLSEKEINAREES [BCL2L13] are 5.6 ± 0.13 and 5.58 ± 0.22.
Regarding NHDIRTANDGDYWRLLNPGEYVVT [CPXM2], the protein stability index is 2.96 ± 0.21 (treatment: DMSO) and 3.25 ± 0.31 (treatment: MLN4924 1 uM, 8 h).
Sequence FVVMGVIGGLLGATFNCLNKRLAK [CLCN6] registered a protein stability index (treatment: DMSO) of 2.55 ± 0.39 and a protein stability index (treatment: MLN4924 1 uM, 8 h) of 2.7 ± 0.59.
On to PAEAEGAAQELENQMKERQGLFFD [TMEM120A], for which the protein stability index runs as follows: (treatment: DMSO) 5.33 ± 0.1; (treatment: MLN4924 1 uM, 8 h) 5.26 ± 0.34.
For GELLNMIVAVIDSAQLQELVCHVM [INTS3] the same measures were 2.92 ± 0.59 and 2.6 ± 0.72.
For FCREEMGEVLKSSTFSSGPSDKMK [SPOPL] the same measures were 3.53 ± 0.41 and 3.69 ± 0.23.
The corresponding values for VLIFKSILFLPCLRKKILKIRHGW [STEAP1] are 2.16 ± 0.51 and 2.38 ± 0.25.
On to SAPGACEEPTERGNLEVGEPQSEP [FBXO34], for which the protein stability index turned out to be 5.67 ± 0.27 (treatment: DMSO) and 5.7 ± 0.17 (treatment: MLN4924 1 uM, 8 h).
Consider RLLVGLALATLRVLRGLARPEHPP [TMEM175], for which the protein stability index worked out at 2.02 ± 0.42 (treatment: DMSO) and 2.35 ± 0.43 (treatment: MLN4924 1 uM, 8 h).
The corresponding values for MRQRISRVEESALRALREKLFAHS [PPEF2] are 2.72 ± 0.24 and 2.71 ± 0.33.
The corresponding values for SNKSLVEALGLEAEGAVPETQTLT [RHOBTB1] are 5.09 ± 0.26 and 5.16 ± 0.36.
The corresponding values for CSSRPLQKGSHPMCKEHEDEKINI [TRIM63] are 4.81 ± 0.093 and 4.84 ± 0.24.
In the case of DSKDCILEPLSLPESPGGTTTLEG [ZNF277], the protein stability index is 5.36 ± 0.19 (treatment: DMSO) and 5.32 ± 0.25 (treatment: MLN4924 1 uM, 8 h).
As to QSQLSMKAGLENSLAETECRYATQ [KRT15], the protein stability index by setting is: (treatment: DMSO) 4.38 ± 0.23; (treatment: MLN4924 1 uM, 8 h) 4.46 ± 0.17.
The corresponding values for WQRQMDQPQDRNQALGTHRPVNKL [RASAL3] are 4.39 ± 0.35 and 4.49 ± 0.14.
Take NLENPMRRIHSLPQKLLGCSPALK [CDC25A]: the protein stability index (treatment: DMSO) turned out to be 2.64 ± 0.23 and the protein stability index (treatment: MLN4924 1 uM, 8 h) was 3.11 ± 0.32.
LMCFDPDTDKWIQKAPMTTVRGLH [KLHL13]: the protein stability index came to 2.57 ± 0.18 (treatment: DMSO) and 2.64 ± 0.23 (treatment: MLN4924 1 uM, 8 h).
For DMKLIILANRLCLPHLVALTEQYT [RHOBTB2] the same measures were 3.8 ± 0.26 and 3.08 ± 1.3.
For HFPYDLHLRSQSLTMQDELNAVFH [NEUROD6] the same measures were 2.81 ± 0.19 and 2.92 ± 0.27.
The corresponding values for KTSQLSYYYMGFYIHSCPKMKYKG [ATE1] are 2.47 ± 1.2 and 2.25 ± 0.66.
For the sequence QLLILLQNCTDEGEREAIQKSVTR [POP5], the protein stability index runs as follows: (treatment: DMSO) 3.91 ± 0.26; (treatment: MLN4924 1 uM, 8 h) 4.12 ± 0.27.
